± gives the half width of the 95% confidence interval.
assay: folding stability dG unfold from trypsin proteolysis; higher = more stable
Method in brief: (§1)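 Designed mini-proteins with no cysteine and under 80 residues were kept only if AlphaFold2 dimer inter-PAE was above 15. In a PA-tagged cDNA display construct, they were digested with trypsin and chymotrypsin and then sequenced. K50 was inferred by Bayesian fitting of counts, and unfolding free energy was derived per protease or combined against a sequence-predicted unfolded-state K50 and a shared folded-state K50.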

Sequence | folding stability dG unfold
SAGGMPKPVTLPAVIELGAGPAIAVEEFPETGKLVFVFPPTHRIFVFDPNGKLVAEVDVPPDVPVSAVSAGG [r13_507_TrMRF] | 0.901 ± 0.053 kcal/mol
SPNWKIVEITEMERTDGRVTIKIKIKVPDGRIYIFMPNGKIIEEVPLGDDVELTITFPPNNWPIYIFVLDSA [r9_917_TrROS] | 3.47 ± 0.093 kcal/mol
PKEIIEFAKKNGFKVKIEPVKVGSEEKAKKLAEEIKKKNNGKVFIIKNPKTGEAVYRIEIYPLKVPKNKKLS [r1_179_TrMRF] | 1.37 ± 0.14 kcal/mol
SAGGSAGKNKPFPLPILIEAHPDDPEEAAERLKAELEALFPGPIKVEIVEVDPEKGIITAIVTVDGSAGGSA [r15_1024_TrMRF] | 0.985 ± 0.038 kcal/mol
SAGGSSITVTDETTVEVSPTGSPTGPPVATVTTTTSTTTTTYYDPKTGTSTETTTTTTTTTTSTGASAGGSA [r2_269_JUSTAS] | 0.603 ± 0.067 kcal/mol
SSSSMKTITLEKKITSPEEAEALREELLKKGYEVEVKVYPHPDSYIAKITVTIEVPPPPLSPTNPSALLKSA [r9_863_JUSTAS] | 1.19 ± 0.061 kcal/mol
SASMTYTVTVTVSVKNPDGTPIGTIPITRTMNLDEAKVIVEKEIKKTVDELFPGKPANVTVDTTVTPLPSAG [r14_570_JUSTAS] | 0.482 ± 0.13 kcal/mol
SMYRIRLPSNKVFTIDVPPDGTVEITLPNGKKLTLKLESEEDILALAEILSKLFPDDPAEIEPIPLEYYRSA [r9_1206_TrMRF] | 1.24 ± 0.042 kcal/mol
SAGGSAGGSAGKKTYKLVIPVKPDKTVEEIAEEVKKLLGPGSKVEVEEKEDGFATVYVESSAGGSAGGSAGG [r17_20_TrMRF] | 0.292 ± 0.04 kcal/mol
SAGGSAGGSAGAPPEGAKPVEEETVPIEIQMRNDDDGKPIMPIKFEVRVYKFPDGIFISISAGGSAGGSAGG [r11_415_TrROS] | 1.34 ± 0.13 kcal/mol
SMTISIPGGITITIEPKPNSYTLTVSFPDGSTVTRPVDPSDLTSAIKAVIREALRRADPNITEEEIEKLLSA [r9_634_JUSTAS] | 4.39 ± 0.1 kcal/mol
SAGGSAGGSGIEELKKAGFEIVRIERKEDGTLRLTVRNKETEETKTIEITLPEAEVELVEPPESAGGSAGGS [r12_166_TrROS_Hall] | 3.36 ± 0.11 kcal/mol
SAGGSAGGSIKPGQKVKIEIKVEEVDGKLVITAKVYNKDGKLIYEAEIVIENGKIKEVKITPPSAGGSAGGS [r12_264_TrROS_Hall] | 2.58 ± 0.16 kcal/mol
SAGGKTIMHMYMNPNGWFIRAKIKLDPDGKWKITDVEIYPMEMKYEDPNGKPREMPMFMIKIRIKPDSAGGS [r8_270_TrROS] | 3.03 ± 0.084 kcal/mol
SAGGSAGGNWKVEIWPNGEQQEYTIDEIKKQLKNDIPPNYMIRVKGSGKWIPVRELLKEAGIPLSAGGSAGG [r6_937_TrROS] | 0.382 ± 0.077 kcal/mol
SAGGSSSSLIGEIKLPSNVTIKIERSSKGVRTAVVTFPETGKVVTLPLDPNVSIEEIIEKVKEIVEKKSAGG [r13_624_JUSTAS] | 2.06 ± 0.093 kcal/mol
SAGGSMVVTVSTDSTSEPTTVITITIPPELGNLTDEEKKAIAEEIAKKYPNTKFTFTPTTITITRKSAGGSA [r2_256_JUSTAS] | 1.77 ± 0.047 kcal/mol
SAGMPVEIPLVIRLTRYRDLPDGPELAEVRELPLPLRADPSELDNPELLAFIREALEKLPDEIREVEIASAG [r5_849_TrMRF] | -0.255 ± 0.27 kcal/mol
SAGGPLVVEAKVEGDTVTIRLPNGEEFTAHPDATLFLPNGERVFFEPVSDDVVIATVVPLPEDAEFPSAGGS [r16_277_TrMRF] | 0.359 ± 0.034 kcal/mol
SFEIEILDVDPDGWIVITIRYPSPDGKPLTPEEMEEIAEEIALELFPQFPDFKVTIEHDPESGTITIVIRSA [r9_485_TrROS] | 4.25 ± 0.35 kcal/mol
SAGGSAGGSAGKKKIKLLIFDKKTNKLYVVEVELTKDGKIKITKIKEIYEVKPGEKLKLLSAGGSAGGSAGG [r11_750_TrROS_Hall] | 0.981 ± 0.044 kcal/mol

assay: folding stability dG unfold (combined trypsin and chymotrypsin); higher = more stable
Method in brief: as §1

Sequence | folding stability dG unfold
SASAAEEIERALLPLPNIPTAPLATFTLPDAPVEVVSYDPVTGRVLVRLTGTGALFVFDPETGEAELLPSAG [r14_359_TrMRF] | 2.7 ± 0.34 kcal/mol
SAGGSAGGSAGGKPGEKKRYRFPAPKFELVSKVKVRVKVLNEDTNELYEKEVEVFVLKLTSAGGSAGGSAGG [r7_64_TrROS_Hall] | 2.14 ± 0.21 kcal/mol
SEKIKELIKKLAEELNLKIVKIEKKEDGKIIIEFENGIKIEIEIDPEKKNKIKIKIEKTKNGKLKITIEPSA [r9_809_TrROS_Hall] | 2.24 ± 0.12 kcal/mol
SMKTVTLNFPSLSEEEVRALAEELEATGRYRVEKIDSSTPNIKVTVLEEPPEPRPPPPPALVRDADARAASA [r9_830_JUSTAS] | 1.4 ± 0.12 kcal/mol
SAGGKTYKIKVTVEVKNENGETEKKEYVIEVKENKTPEEIAEELKKKLGVEKVEIVDPKTGKKYTIELSAGG [r13_663_TrROS_Hall] | 2.83 ± 0.084 kcal/mol
SAGGSAGGSAGGNIKVDDVHHNPNNYRQVKIDLPGGKPIKIWMSMDDPNNVKEIAKEIFSAGGSAGGSAGGS [r10_472_TrROS] | -0.22 ± 0.1 kcal/mol
SAGGMKVKVEVEITVNGKLVKKLTVEMSVEELKKLIEELLPPGAKVEVKIVEVKVEEVEVYELPEEEKSAGG [r13_491_TrROS_Hall] | 2.18 ± 0.32 kcal/mol
SAGGPTAPAGGPLLAPVPVVVPVPVTLTFPNLTPEQAEALAEYFRSLGAEVSYDSATGTLTVRDYRTSAGGS [r16_765_TrMRF] | 3.587 ± 0.033 kcal/mol
SAGGMTVERVPGSGVYTLTFPDGSTETLEIPPEENAVVYAKEGAGTVTVKLAPPDDPEALAAAAALSSAGGS [r16_623_JUSTAS] | 0.15 ± 0.066 kcal/mol
SWTFPILIRFPFDDPEDLDKAREMAEDLVRYLAEEFGWPVKIDKVKYERNPENGWVWIRAEITVTPPDDVSA [r9_105_TrROS] | 4.9 ± 0.11 kcal/mol
